Experimental data taken from patent US20240026407A1, “MODIFICATION OF SAPONINS” (GLAXOSMITHKLINE BIOLOGICALS SA, priority 2020, published 2024).

Key:
Type in all cases: biochemical, Quillaja saponaria
[1] = Experiment 6-1: specificity of rhamnosidases towards other rhamnose residues (C3 saccharide rhamnose, C28 saccharide rhamnose); conditions: TBE 2%, pH 7.5, 30 degC, 18 h; LCMS/MS; negative controls 0.18, 0.17
[2] = Experiment 6-1: screening of rhamnosidases for derhamnosylation of saponins in treated bark extract (2%), QS-17 2310 to QS-18 2164 (PAR %); conditions: TBE 2%, pH 7.5, 30 degC, 18 h; TIC peak area ratio percent, LCMS/MS; negative controls 3.061, 2.429
[3] = Experiment 6-1: screening of rhamnosidases for derhamnosylation of saponins in treated bark extract (2%), QS-17 2296 to QS-18 2150 (PAR %); conditions: TBE 2%, pH 7.5, 30 degC, 18 h; TIC peak area ratio percent of rhamnosylated starting saponin to derhamnosylated product, LCMS/MS; negative controls 4.876, 5.225
[4] = Experiment 6-1: screening of rhamnosidases for derhamnosylation of saponins in treated bark extract (2%), desglucosyl-QS-17 2134 to QS-21 1988 (PAR %); conditions: TBE 2%, pH 7.5, 30 degC, 18 h; TIC peak area ratio percent, LCMS/MS; negative controls 2.719, 2.158

B1: 1074 (protein, listed as Actinoplanes sp.)
chain: MKGSFAVLAAALLLMPVSAPTAAAEPAVTLDGAHWIWYPEGDPATSAPAATRYLRRAFTVAASDIATAQLVVTGDDTIDVWVNGVRLAGSPRAADSWKRAVRVDLAGSLHPGSNTVALAARNTGGPAGVLGRLHAGSVDLVTDGSWRAATGVPENWADPAFSDVAWTTAKDLGAYGGGPWGAGVALPDPAAASPVSVTDLTVNRQADPVGVDTPRFGWRLAAGTGGQMQGRYQLTVGSTAGAADVWDSGIVASTASRDIGYSGPALGANRTYFWRVRVWDAQGRPSAWSAGARFDTGIALTAAFVGAPPAGDLSGADWIWYPEGDPATSAPAATRYFRRTVTLATSTTLVVAGDDTADVWVDGTQISASPRVTDSWKTAATVTVPAGTRTIAIAASNTTVGPAGVIAKLGGIVTDGSWRSATAAPGGWQQPGFDDSGWLAAKVLAAYGSGPWGGQVLVPAAAPYLRKGFAVTRPVARARLFATALGLHDTYLNGARVGTERLAPGWTDYTKRVQYRGYDVTAALRLGDNALAAQIGHGWYSGNIGFAGSRRYGTQPWYAAQLIIEYTDGTSATVQTDGSWRTAPGNILGDDLYAGETQDARLIRSGWNTAGFDDSDWVPVTVQNGARPTLVPQVDPGVTVQQELRPVAVTQPKPGVFIADLGQNFTGWDRLRVSGPAGTTVTLRHGEILNADGTLYTANLRAAQATDRFTLAGTGTETFEPRFTVHGYRYVEITGFPGTPDADSLTGLAAWTGGAATGMFTSSDSTLNQVQRAILWGARSNLLSIPTDCPQRDERLGWTGDIAAFVATSTFNFDTYGLLAKFATDLTDAQHSDGAFTDVAPDVLGGAGKAGWGDAGVIVPYTVWQRFGDLAPADRNFAAMARWVDYLRSTAGADLIRNQDTYGDWLNVDDGTGNDLTSTAFFGWSARLVSRMAAATGRTAQAATYGTLADQIAAAFTGRFVHADNTVGTGSETGYVLALAFGLVPGDRVQAVADRLAAKVASRNGHLSVGFMGVENLLPVLADHGHADVAYRILQQPDYPGWGYMIARGATTIWERWDGIRPDGSLQDPGMNSFNHYGLGSVGDWLYREVGGVAPAAPGYAQVLLAPKPGGSLTSASAELTTTFGRVRSAWSRSGSAVTLQVVVATGTTATVRVPGTAVTSAPAEAVPVGGTSYVVGAGSYTFTSTL
For B1, the “ratio PP/QS-21” value [1] was 0.18, the “Peak57 (PAR %)” value [2] was 1.681% and the “QS-17 (PAR %)” value [3] was 4.443%. The “Peak75 (PAR %)” value [4] was 2.312%.

B2: 1067 (protein, listed as Pedobacter heparinus)
chain: MKLIPNFLKTSMQQTVLLLLLALVCCADTVLAQQSGKASWIWYPGDLDIWVSNKMQNRRTERGAFLPPFWKMDSHYVLVEFHKEFNLANAEEVNLYVEGQYNVKIDGQAFSGYPKKITVPAGKHKLSLKVYGQDKVPAILVQGKTVVSDESWLATFEDKEWIDASGKASDKSGTTFVSAASWNLTDPLSPPSRFKLATTPMAAVKTDKVNNGFVADFGKETFGFIKLHGLKGKGKLHIYYGESKEEALSADHCETLDLLEIDLKGKQDSVIELSKAFRYVNCQPEGNVTLDKVSMLYEYAPVTEKGNFRCSDEQINKIYDISKYTFHLNTREFFIDGIKRDRWVWSGDAYQSYLMNYYSFNESPIVKRTLLAQRGKDPVTAHINTIMDYSFYWFLGIYDYYQYSGDQKFVQDIYPRMKSLMDYVLGRRNKDGLLEWMPGDWIFIDWADKLSKDGEVSFEQLLFCRSLETMALCADMAKDTEAAANYKKLAADLKARIFKLYWDENKHALVHSRINGKPTDNVTRYANMFGIFFDYFSPSQKQEVKQHVLMNNKINKITTPYMRFYELEALCAMGEQSYVLKQMKDYWGGMLELGATSFWEEYNRDKKGVEHLAMYGRPFGKSLCHAWGASPIYLLGKYYLGVKPLSAGYETYVVEPSLGGLEWMEGKVPTPSGEISLYCSKKEIRIKADEGSGVLRFKSVSKPVVKGGKVVEVGKRTYELKLMKGVQYTVNYQK
For B2, the “ratio PP/QS-21” value [1] was 0.17, the “Peak57 (PAR %)” value [2] was 2.852% and the “QS-17 (PAR %)” value [3] was 4.455%. The “Peak75 (PAR %)” value [4] was 2.231%.

B3: 1033 (protein, listed as Pedobacter heparinus)
chain: MNRRTFIQNTSIATSSLVFFNQFESLAFSKSDQDLYTLFKNPPANYRPFVRWWWNGNKIQKKELFRQLTLLKDAGIGGVEINPISFPNKADDMGIKSLRWLSDEWIDLVKDTCNEARSKDMTCDLIVGSGWPFGSEDLKEEERAEVVLVFAEKVEGPMVYETTKYSIYNAIDPQVTDKNPLRSPILMDLKLSQDPIAAIATTIDFSNQINNDIIKIDVPEGKHCIYALVKFKSFAKVINGAPGASGSILNHLNKQAVESYLNRMSSTMQDRIGPLSNYLRALFTDSMELEGCNWCEDFPAEFKKRCGYDLMPYLPFILFKVGRLGAVVDEDYGAEKSQDLNVILKKVRFDFEYTKALLLRERFTEVYLKWCKELKVKSRAQAYGRGFFPLETSLGYDIPEGESWTTNYLRHKLGEEMSDEDYRRGRGYTMINKYVSSAAHLTGKRIVSCEEMTNTYLVFNATLELLKLGSDQSIMSGITHSVWHGFNYSPKEVAFPGWVQYGSYYSEKNNWWPYFKYLNDYKARLSSQLQHGDYYTDIAILPANYDLWANNGVQTDPFPEKLNVPYTSLLWEAINKNGGAADYITDMILTQSEIIKGKIVYGKKSFGVLFLPGVESLSELAMQKIEQFVKTGGKVICIEKYPAKGLGFLNWEQKDATIKDAVARLKQQFSDRFIFLDKPADNKFLEWYTPLIATHQLPSYLNISTPNRYFMQIRSVRDDGTEMFFFQNAHRYDAYQARVVFDRKKIKGKYAWVWDLDSGERFRLTLTNDTTFEYNFGPTESLLIIFDQIKNGEKWKPLLSSGKSTLNLDKVWDLELRNSLDGSVKHVNLPQVIDMKDDKELVNFTGTAIYRKKITLTDTKNLVINLGKVYGITQLYINKVQVGIKWYGKRFFDISKYVQTGTNDIEIHLVTTMGNYMKTLTDNEIAQYWVNRKGREQEIQSMGIVGPIEIYQQN
In the case of B3, the “ratio PP/QS-21” value [1] is reported as 0.16, the “Peak57 (PAR %)” value [2] is reported as 2.927% and the “QS-17 (PAR %)” value [3] is reported as 4.485%. For the same molecule, the “Peak75 (PAR %)” value [4] was 2.521%.

B4: 1071 (protein, listed as Opitutus terrae)
chain: MKRMKIMKRRIDIFRSSLFLGAYPAMAAPFVQRSAWIWSAEGTHAAPAPESASPSHYQVRLFRRVFLLENGGREGRIAVSADSRYVLYCNGALIGRGPARGDVHHQFYDTYELAPYLHRGANVLAALVLDMSHVAHRPAALGAPGGVMTYAGGFLLEGGVVDLNDRMEILDTGAAGWKVTVDRSYRFQNDGTRFEGYHGYFEHRVSAEAPADWTAASFDDSAWPDATVLYRAERLENRRDPASPYGLVARMIPPMEVGRVARFAAGVLPGGGKPGAEWKRLAAGKGAVTIPARSTVRIILDAGRMTTAYPLVQTDGGPGAHIRLTYAEALRLPWSTVGARMLGRPQSLANLASHFADESSGWTFDARGHVTGWSDRWEPAGRPREVFEPWHWRSFRFVELEIVTAEEPMELTDLGYRFTAYPYRVEAEFACSDPRLERIWQTALHTMRLCSHETFVDCPHYEQMQYAGDTMITSKLAMLSTGDYALSRQALLQFDWSRIPDGLTQSRYPSRLLQVIPSWSLHWITSIRDYACCSGDLQTVNEVLPGVRVVLDWYRRHADPSGLPSRLPYWNITDWCSWWPRGVVPGADEGPTCIISAQFVQALAEAADLHGWVGQRHEQRRLATEVKTLRGVLRRRFWSRDEGLFFDKPGGPEVSQYGNAWAIVCGAATAADRKRMLARFPADPLLAPGSFFCWHAVFRALEAAGAYDRLPEFLGPWHEMVEAGLDTFVEENSYWRSLCHAWSAHPALEFLAGVLGVKALEPGFATVRVTPHRCGLREARGQVCTPRGPITVAWTWEKGRFRIRVTAPRELQVEIGLPDGSDHRMTHGRFETEVVIHEA
For B4, the “ratio PP/QS-21” value [1] was 0.17, the “Peak57 (PAR %)” value [2] was 2.650% and the “QS-17 (PAR %)” value [3] was 4.587%. The “Peak75 (PAR %)” value [4] was 2.574%.
